*1 amine or outer side, *2 acyl side, *3 side chain or, on linkers, in order; H or OH if unused. Side-chain parts run from the residue outwards. The star is where a group is joined. C18 diacid = O=C(O)CCCCCCCCCCCCCCCCC(=O)*; γGlu = O=C(O)[C@H](CCC(=O)[*:2])N[*:1]; Isovaleryl = CC(C)CC(=O)*; AEEA = NCCOCCOCC(=O)O
Biological target: T1, human neuropeptide Y2 receptor (human, UniProt P49146 1-381)
T1 construct: whole, on cells; also called hNPY2 receptor; hNPY2-R
T1 sequence (looked up): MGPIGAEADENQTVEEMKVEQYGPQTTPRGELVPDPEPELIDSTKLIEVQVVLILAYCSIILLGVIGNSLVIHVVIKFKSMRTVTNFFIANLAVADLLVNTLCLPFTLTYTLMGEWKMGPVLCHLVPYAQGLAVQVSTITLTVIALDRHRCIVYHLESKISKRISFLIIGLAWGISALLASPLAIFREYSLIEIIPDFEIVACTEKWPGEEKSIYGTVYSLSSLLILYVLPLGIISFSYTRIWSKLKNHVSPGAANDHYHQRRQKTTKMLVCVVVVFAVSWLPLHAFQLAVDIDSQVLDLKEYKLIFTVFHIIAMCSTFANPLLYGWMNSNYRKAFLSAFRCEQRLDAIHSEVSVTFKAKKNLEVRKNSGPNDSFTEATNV
Experiment: radioligand competition (125I-PYY(1-36)), hNPY2R membranes
How it was run: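 Commercial human Y2 receptor membranes (0.5 μg protein/well) were incubated with peptide for 2 h at room temperature in 50 mM HEPES, 5 mM MgCl₂, 1 mM CaCl₂, pH 7.4, with 0.2% ovalbumin. Bound radioligand was separated on PEI-soaked GF/C filters and counted by scintillation, and IC₅₀ came from nonlinear sigmoidal regression.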

Row | Binder | Ki [nM]
1 | Isovaleryl-APEK([AEEA-AEEA-γGlu-C18 diacid])PEEAASPEELQRYEVSLRHYYNWLTRQRY-NH2 (SMILES CC(C)CC(=O)N[C@@H](C)C(=O)N1CCC[C@H]1C(=O)N[C@@H](CCC(=O)O)C(=O)N[C@@H](CCCCNC(=O)COCCOCCNC(=O)COCCOCCNC(=O)CC[C@H](NC(=O)CCCCCCCCCCCCCCCCC(=O)O)C(=O)O)C(=O)N1CCC[C@H]1C(=O)N[C@@H](CCC(=O)O)C(=O)N[C@@H](CCC(=O)O)C(=O)N[C@@H](C)C(=O)N[C@@H](C)C(=O)N[C@@H](CO)C(=O)N1CCC[C@H]1C(=O)N[C@@H](CCC(=O)O)C(=O)N[C@@H](CCC(=O)O)C(=O)N[C@@H](CC(C)C)C(=O)N[C@@H](CCC(N)=O)C(=O)N[C@@H](CCCNC(=N)N)C(=O)N[C@@H](Cc1ccc(O)cc1)C(=O)N[C@@H](CCC(=O)O)C(=O)N[C@H](C(=O)N[C@@H](CO)C(=O)N[C@@H](CC(C)C)C(=O)N[C@@H](CCCNC(=N)N)C(=O)N[C@@H](Cc1c[nH]cn1)C(=O)N[C@@H](Cc1ccc(O)cc1)C(=O)N[C@@H](Cc1ccc(O)cc1)C(=O)N[C@@H](CC(N)=O)C(=O)N[C@@H](Cc1c[nH]c2ccccc12)C(=O)N[C@@H](CC(C)C)C(=O)N[C@H](C(=O)N[C@@H](CCCNC(=N)N)C(=O)N[C@@H](CCC(N)=O)C(=O)N[C@@H](CCCNC(=N)N)C(=O)N[C@@H](Cc1ccc(O)cc1)C(N)=O)[C@@H](C)O)C(C)C) [Compound 70] | 4.86
2 | Isovaleryl-APEK([AEEA-AEEA-γGlu-C18 diacid])PEEDASEEELQRYYVELRHYYNWLTRQRY-NH2 (SMILES CC(C)CC(=O)N[C@@H](C)C(=O)N1CCC[C@H]1C(=O)N[C@@H](CCC(=O)O)C(=O)N[C@@H](CCCCNC(=O)COCCOCCNC(=O)COCCOCCNC(=O)CC[C@H](NC(=O)CCCCCCCCCCCCCCCCC(=O)O)C(=O)O)C(=O)N1CCC[C@H]1C(=O)N[C@@H](CCC(=O)O)C(=O)N[C@@H](CCC(=O)O)C(=O)N[C@@H](CC(=O)O)C(=O)N[C@@H](C)C(=O)N[C@@H](CO)C(=O)N[C@@H](CCC(=O)O)C(=O)N[C@@H](CCC(=O)O)C(=O)N[C@@H](CCC(=O)O)C(=O)N[C@@H](CC(C)C)C(=O)N[C@@H](CCC(N)=O)C(=O)N[C@@H](CCCNC(=N)N)C(=O)N[C@@H](Cc1ccc(O)cc1)C(=O)N[C@@H](Cc1ccc(O)cc1)C(=O)N[C@H](C(=O)N[C@@H](CCC(=O)O)C(=O)N[C@@H](CC(C)C)C(=O)N[C@@H](CCCNC(=N)N)C(=O)N[C@@H](Cc1c[nH]cn1)C(=O)N[C@@H](Cc1ccc(O)cc1)C(=O)N[C@@H](Cc1ccc(O)cc1)C(=O)N[C@@H](CC(N)=O)C(=O)N[C@@H](Cc1c[nH]c2ccccc12)C(=O)N[C@@H](CC(C)C)C(=O)N[C@H](C(=O)N[C@@H](CCCNC(=N)N)C(=O)N[C@@H](CCC(N)=O)C(=O)N[C@@H](CCCNC(=N)N)C(=O)N[C@@H](Cc1ccc(O)cc1)C(N)=O)[C@@H](C)O)C(C)C) [Compound 77] | 6.17
3 | Isovaleryl-APEK([AEEA-AEEA-γGlu-C18 diacid])PEEEASEEELQRYYVSLRHYYNWLTRQRY-NH2 (SMILES CC(C)CC(=O)N[C@@H](C)C(=O)N1CCC[C@H]1C(=O)N[C@@H](CCC(=O)O)C(=O)N[C@@H](CCCCNC(=O)COCCOCCNC(=O)COCCOCCNC(=O)CC[C@H](NC(=O)CCCCCCCCCCCCCCCCC(=O)O)C(=O)O)C(=O)N1CCC[C@H]1C(=O)N[C@@H](CCC(=O)O)C(=O)N[C@@H](CCC(=O)O)C(=O)N[C@@H](CCC(=O)O)C(=O)N[C@@H](C)C(=O)N[C@@H](CO)C(=O)N[C@@H](CCC(=O)O)C(=O)N[C@@H](CCC(=O)O)C(=O)N[C@@H](CCC(=O)O)C(=O)N[C@@H](CC(C)C)C(=O)N[C@@H](CCC(N)=O)C(=O)N[C@@H](CCCNC(=N)N)C(=O)N[C@@H](Cc1ccc(O)cc1)C(=O)N[C@@H](Cc1ccc(O)cc1)C(=O)N[C@H](C(=O)N[C@@H](CO)C(=O)N[C@@H](CC(C)C)C(=O)N[C@@H](CCCNC(=N)N)C(=O)N[C@@H](Cc1c[nH]cn1)C(=O)N[C@@H](Cc1ccc(O)cc1)C(=O)N[C@@H](Cc1ccc(O)cc1)C(=O)N[C@@H](CC(N)=O)C(=O)N[C@@H](Cc1c[nH]c2ccccc12)C(=O)N[C@@H](CC(C)C)C(=O)N[C@H](C(=O)N[C@@H](CCCNC(=N)N)C(=O)N[C@@H](CCC(N)=O)C(=O)N[C@@H](CCCNC(=N)N)C(=O)N[C@@H](Cc1ccc(O)cc1)C(N)=O)[C@@H](C)O)C(C)C) [Compound 79] | 4.52
4 | Isovaleryl-APEK([AEEA-AEEA-γGlu-C18 diacid])PEEDASPEELQRYAVSLRHYYNWLTRQRY-NH2 (SMILES CC(C)CC(=O)N[C@@H](C)C(=O)N1CCC[C@H]1C(=O)N[C@@H](CCC(=O)O)C(=O)N[C@@H](CCCCNC(=O)COCCOCCNC(=O)COCCOCCNC(=O)CC[C@H](NC(=O)CCCCCCCCCCCCCCCCC(=O)O)C(=O)O)C(=O)N1CCC[C@H]1C(=O)N[C@@H](CCC(=O)O)C(=O)N[C@@H](CCC(=O)O)C(=O)N[C@@H](CC(=O)O)C(=O)N[C@@H](C)C(=O)N[C@@H](CO)C(=O)N1CCC[C@H]1C(=O)N[C@@H](CCC(=O)O)C(=O)N[C@@H](CCC(=O)O)C(=O)N[C@@H](CC(C)C)C(=O)N[C@@H](CCC(N)=O)C(=O)N[C@@H](CCCNC(=N)N)C(=O)N[C@@H](Cc1ccc(O)cc1)C(=O)N[C@@H](C)C(=O)N[C@H](C(=O)N[C@@H](CO)C(=O)N[C@@H](CC(C)C)C(=O)N[C@@H](CCCNC(=N)N)C(=O)N[C@@H](Cc1c[nH]cn1)C(=O)N[C@@H](Cc1ccc(O)cc1)C(=O)N[C@@H](Cc1ccc(O)cc1)C(=O)N[C@@H](CC(N)=O)C(=O)N[C@@H](Cc1c[nH]c2ccccc12)C(=O)N[C@@H](CC(C)C)C(=O)N[C@H](C(=O)N[C@@H](CCCNC(=N)N)C(=O)N[C@@H](CCC(N)=O)C(=O)N[C@@H](CCCNC(=N)N)C(=O)N[C@@H](Cc1ccc(O)cc1)C(N)=O)[C@@H](C)O)C(C)C) [Compound 85] | 1.56
5 | Isovaleryl-APEK([AEEA-AEEA-γGlu-C18 diacid])PEEEASPSELQRYYVSLRHYYNWLTRQRY-NH2 (SMILES CC(C)CC(=O)N[C@@H](C)C(=O)N1CCC[C@H]1C(=O)N[C@@H](CCC(=O)O)C(=O)N[C@@H](CCCCNC(=O)COCCOCCNC(=O)COCCOCCNC(=O)CC[C@H](NC(=O)CCCCCCCCCCCCCCCCC(=O)O)C(=O)O)C(=O)N1CCC[C@H]1C(=O)N[C@@H](CCC(=O)O)C(=O)N[C@@H](CCC(=O)O)C(=O)N[C@@H](CCC(=O)O)C(=O)N[C@@H](C)C(=O)N[C@@H](CO)C(=O)N1CCC[C@H]1C(=O)N[C@@H](CO)C(=O)N[C@@H](CCC(=O)O)C(=O)N[C@@H](CC(C)C)C(=O)N[C@@H](CCC(N)=O)C(=O)N[C@@H](CCCNC(=N)N)C(=O)N[C@@H](Cc1ccc(O)cc1)C(=O)N[C@@H](Cc1ccc(O)cc1)C(=O)N[C@H](C(=O)N[C@@H](CO)C(=O)N[C@@H](CC(C)C)C(=O)N[C@@H](CCCNC(=N)N)C(=O)N[C@@H](Cc1c[nH]cn1)C(=O)N[C@@H](Cc1ccc(O)cc1)C(=O)N[C@@H](Cc1ccc(O)cc1)C(=O)N[C@@H](CC(N)=O)C(=O)N[C@@H](Cc1c[nH]c2ccccc12)C(=O)N[C@@H](CC(C)C)C(=O)N[C@H](C(=O)N[C@@H](CCCNC(=N)N)C(=O)N[C@@H](CCC(N)=O)C(=O)N[C@@H](CCCNC(=N)N)C(=O)N[C@@H](Cc1ccc(O)cc1)C(N)=O)[C@@H](C)O)C(C)C) [Compound 71] | 5.22
6 | Isovaleryl-APEK([AEEA-AEEA-γGlu-C18 diacid])PEEEASPEETQRYYVSLRHYYNWLTRQRY-NH2 (SMILES CC(C)CC(=O)N[C@@H](C)C(=O)N1CCC[C@H]1C(=O)N[C@@H](CCC(=O)O)C(=O)N[C@@H](CCCCNC(=O)COCCOCCNC(=O)COCCOCCNC(=O)CC[C@H](NC(=O)CCCCCCCCCCCCCCCCC(=O)O)C(=O)O)C(=O)N1CCC[C@H]1C(=O)N[C@@H](CCC(=O)O)C(=O)N[C@@H](CCC(=O)O)C(=O)N[C@@H](CCC(=O)O)C(=O)N[C@@H](C)C(=O)N[C@@H](CO)C(=O)N1CCC[C@H]1C(=O)N[C@@H](CCC(=O)O)C(=O)N[C@@H](CCC(=O)O)C(=O)N[C@H](C(=O)N[C@@H](CCC(N)=O)C(=O)N[C@@H](CCCNC(=N)N)C(=O)N[C@@H](Cc1ccc(O)cc1)C(=O)N[C@@H](Cc1ccc(O)cc1)C(=O)N[C@H](C(=O)N[C@@H](CO)C(=O)N[C@@H](CC(C)C)C(=O)N[C@@H](CCCNC(=N)N)C(=O)N[C@@H](Cc1c[nH]cn1)C(=O)N[C@@H](Cc1ccc(O)cc1)C(=O)N[C@@H](Cc1ccc(O)cc1)C(=O)N[C@@H](CC(N)=O)C(=O)N[C@@H](Cc1c[nH]c2ccccc12)C(=O)N[C@@H](CC(C)C)C(=O)N[C@H](C(=O)N[C@@H](CCCNC(=N)N)C(=O)N[C@@H](CCC(N)=O)C(=O)N[C@@H](CCCNC(=N)N)C(=O)N[C@@H](Cc1ccc(O)cc1)C(N)=O)[C@@H](C)O)C(C)C)[C@@H](C)O) [Compound 80] | 6.96

From patent US20210139548A1 (published 2021)
